Results from the supplement of paper PMC10126150.
± gives the standard deviation of the averaged measurements.

Test system: ATP
Experiment: switch fluorescence ratio, 500 uM ATP over buffer (Cy3 cluster intensity, sum of 5 cycles each) (fold (ratio)); higher = stronger signal-on switching upon ATP binding; sequences stand for … in TCGTCGGCAGCGTCAGATGTGTATAAGAGACAGTTTTTTTTTTTTTTTTTTTTTTTTT…TC
Details: aptamer strand: ATP DNA aptamer (quencher-CACCTGGGGGAGTATTGCGGAGGAAGG + anchor), 100 nM annealed; ATP concentration: 500 uM
Summary of the method: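 Between each of five buffer/ATP cycles, the flow-cell was stripped with NaOH and re-annealed. Each cycle imaged Cy3-labelled switching-strand clusters, annealed to 100 nM quencher-labelled ATP aptamer on a modified Illumina MiSeq flow-cell, first in selection buffer and then after 15 min with 500 uM ATP at 22 °C. The fluorescence ratio is summed target-cycle over summed buffer-cycle Cy3 intensity per cluster, averaged per switch-domain sequence, with clusters outside 100-1000 RFU excluded.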
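Further: ATP exposure 15 min at 22 °C before imaging.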

Row | Sequence | switch fluorescence ratio
1 | GGGGGGGCAT | 1.02 ± 0.031
2 | GGGGGGGCCC | 1.01 ± 0.026
3 | GGGGGGGCCT | 0.999 ± 0.036
4 | GGGGGGGCTC | 0.965 ± 0.035
5 | GGGGGGGGCG | 1.01 ± 0.052
6 | GGGGGGGGGA | 1.01 ± 0.039
7 | GGGGGGGTCA | 0.994 ± 0.027
8 | GGGGGGGTTG | 1.01 ± 0.083
9 | GGGGGGTAGA | 1.02 ± 0.043
10 | GGGGGGTCCC | 0.9957 ± 0.0037
11 | GGGGGGTCT | 1.09 ± 0.051
12 | GGGGGGTGAG | 0.974 ± 0.037
13 | GGGGGGTGCA | 1.02 ± 0.018
14 | GGGGGGTGGC | 1.05 ± 0.15
15 | GGGGGGTGTT | 1.01 ± 0.019
16 | GGGGGGTTGA | 1.1 ± 0.2
17 | GGGGGGTTTC | 1.1 ± 0.2
18 | GGGGGGTTTG | 1 ± 0.037
19 | GGGGGGTTTT | 1.01 ± 0.059
20 | GGGGGTAAGA | 0.981 ± 0.028
21 | GGGGGTAGTG | 0.9946 ± 0.0063
22 | GGGGGTATTA | 0.97014 ± 0.00019
23 | GGGGGTATTG | 0.99 ± 0.041
24 | GGGGGTCCCG | 1 ± 0.012
25 | GGGGGTCGGT | 1.01 ± 0.048

Row | Sequence | switch fluorescence ratio
26 | GGGGGTCTGA | 1 ± 0.024
27 | GGGGGTCTGG | 0.9855 ± 0.0097
28 | GGGGGTGAAT | 1 ± 0.037
29 | GGGGGTGATG | 1 ± 0.035
30 | GGGGGTGGCT | 1.027 ± 0.0069
31 | GGGGGTGGGT | 1 ± 0.021
32 | GGGGGTGGTC | 1.01 ± 0.04
33 | GGGGGTGTCG | 0.994 ± 0.035
34 | GGGGGTGTGG | 0.999 ± 0.035
35 | GGGGGTTCAA | 0.983 ± 0.025
36 | GGGGGTTGAC | 1.01 ± 0.027
37 | GGGGGTTGGC | 0.966 ± 0.047
38 | GGGGGTTGGT | 0.996 ± 0.026
39 | GGGGGTTGTG | 1 ± 0.036
40 | GGGGGTTGTT | 0.997 ± 0.025
41 | GGGGTAAAGA | 1.02 ± 0.036
42 | GGGGTAAGGC | 0.979 ± 0.019
43 | GGGGTAATAG | 1.12 ± 0.14
44 | GGGGTAATAT | 1.06 ± 0.053
45 | GGGGTACATG | 1.022 ± 0.0055
46 | GGGGTACGAT | 1.02 ± 0.027
47 | GGGGTACGGC | 1.03 ± 0.041
48 | GGGGTACTAG | 0.9981 ± 0.0071
49 | GGGGTAGACA | 1 ± 0.031
50 | GGGGTAGAGA | 0.99 ± 0.015

Row | Sequence | switch fluorescence ratio
51 | GGGGTAGCAT | 0.986 ± 0.028
52 | GGGGTAGCGT | 0.99 ± 0.03
53 | GGGGTAGTCA | 1 ± 0.035
54 | GGGGTAGTCG | 0.988 ± 0.012
55 | GGGGTATCAT | 0.983 ± 0.03
56 | GGGGTATCTC | 0.986 ± 0.021
57 | GGGGTATGGG | 0.985 ± 0.038
58 | GGGGTATGTG | 0.992 ± 0.039
59 | GGGGTCCTAA | 0.986 ± 0.011
60 | GGGGTCCTTT | 0.9886 ± 0.0044
61 | GGGGTCGGG | 0.977 ± 0.044
62 | GGGGTCTGGG | 0.966 ± 0.016
63 | GGGGTGAGAG | 0.993 ± 0.026
64 | GGGGTGATAG | 1 ± 0.042
65 | GGGGTGATCA | 1.05 ± 0.064
66 | GGGGTGATCC | 1.01 ± 0.012
67 | GGGGTGCCAA | 0.975 ± 0.067
68 | GGGGTGGAGG | 1.02 ± 0.017
69 | GGGGTGGAGT | 0.971 ± 0.019
70 | GGGGTGGGAG | 1.01 ± 0.041
71 | GGGGTGGGGA | 1 ± 0.036
72 | GGGGTGGGGC | 1 ± 0.042
73 | GGGGTGGTAA | 1.01 ± 0.02
74 | GGGGTGTAAT | 1.01 ± 0.021
75 | GGGGTGTAGC | 0.992 ± 0.042

Row | Sequence | switch fluorescence ratio
76 | GGGGTGTAGG | 0.993 ± 0.024
77 | GGGGTGTGAC | 1.022 ± 0.0026
78 | GGGGTGTGCT | 1.1 ± 0.16
79 | GGGGTTAAAT | 1 ± 0.047
80 | GGGGTTACGG | 0.996 ± 0.062
81 | GGGGTTAGGG | 1 ± 0.032
82 | GGGGTTATGG | 0.984 ± 0.041
83 | GGGGTTCCGC | 1.05 ± 0.026
84 | GGGGTTCGCG | 1.004 ± 0.0048
85 | GGGGTTCGGC | 1.058 ± 0.0023
86 | GGGGTTGAAG | 0.979 ± 0.01
87 | GGGGTTGACA | 1.04 ± 0.051
88 | GGGGTTGAGG | 0.993 ± 0.023
89 | GGGGTTGCGA | 0.996 ± 0.018
90 | GGGGTTGGGG | 0.994 ± 0.031
91 | GGGGTTGTGG | 0.988 ± 0.032
92 | GGGGTTTAAT | 1 ± 0.034
93 | GGGGTTTCCG | 0.9992 ± 0.0093
94 | GGGGTTTGGT | 0.984 ± 0.038
95 | GGGGTTTTAT | 1.01 ± 0.018
96 | GGGGTTTTGA | 0.97725 ± 0.00091
97 | GGGGTTTTGG | 0.995 ± 0.025
98 | GGGTAAAAAG | 0.991 ± 0.018
99 | GGGTAACGAG | 1.006 ± 0.0078
100 | GGGTAAGAGA | 1.04 ± 0.079

Row | Sequence | switch fluorescence ratio
101 | GGGTAAGGCA | 0.986 ± 0.071
102 | GGGTAATGTA | 1.02 ± 0.014
103 | GGGTAATTTT | 1.02 ± 0.047
104 | GGGTACAGGT | 1.18 ± 0.2
105 | GGGTACGCTT | 1 ± 0.025
106 | GGGTAGAATG | 1.02 ± 0.03
107 | GGGTAGCCTG | 0.982 ± 0.02
108 | GGGTAGCTCG | 0.987 ± 0.031
109 | GGGTAGGAAA | 1.011 ± 0.007
110 | GGGTAGGGCC | 1.026 ± 0.0023
111 | GGGTAGGGGG | 0.989 ± 0.02
112 | GGGTAGGGTC | 1.01 ± 0.022
113 | GGGTAGTGAG | 0.999 ± 0.02
114 | GGGTATACGG | 0.982 ± 0.086
115 | GGGTATAGGC | 0.981 ± 0.046
116 | GGGTATAGGT | 0.999 ± 0.016
117 | GGGTATCACG | 1 ± 0.017
118 | GGGTATCAGG | 0.965 ± 0.016
119 | GGGTATCTAT | 1.012 ± 0.0067
120 | GGGTATGGCT | 1.02 ± 0.018
121 | GGGTATGTAT | 0.992 ± 0.027
122 | GGGTATGTGG | 0.972 ± 0.032
123 | GGGTATGTGT | 0.986 ± 0.015
124 | GGGTATTGAT | 1.01 ± 0.042
125 | GGGTCAAATA | 0.982 ± 0.011

Row | Sequence | switch fluorescence ratio
126 | GGGTCAACGC | 0.9974 ± 0.0036
127 | GGGTCAAGCG | 0.943 ± 0.017
128 | GGGTCAGGTA | 0.996 ± 0.03
129 | GGGTCCACAG | 1.01 ± 0.04
130 | GGGTCCATGG | 0.985 ± 0.024
131 | GGGTCCATTT | 1.01 ± 0.037
132 | GGGTCCCTTG | 1 ± 0.026
133 | GGGTCCGCGG | 1.04 ± 0.011
134 | GGGTCCGGCC | 0.992 ± 0.02
135 | GGGTCCTAAG | 0.975 ± 0.038
136 | GGGTCCTGCG | 1.04 ± 0.019
137 | GGGTCCTTGT | 1.01 ± 0.041
138 | GGGTCGATTT | 0.999 ± 0.01
139 | GGGTCGCGCA | 1.02 ± 0.029
140 | GGGTCGGACG | 1.028 ± 0.0088
141 | GGGTCGGCGA | 1.03 ± 0.011
142 | GGGTCGGGAG | 0.979 ± 0.027
143 | GGGTCTAAG | 0.987 ± 0.041
144 | GGGTCTGCAC | 0.997 ± 0.013
145 | GGGTCTGGTA | 1.02 ± 0.038
146 | GGGTCTTCGC | 0.991 ± 0.024
147 | GGGTCTTGGC | 1.0357 ± 0.00074
148 | GGGTCTTTTC | 1.11 ± 0.11
149 | GGGTCTTTTT | 1.02 ± 0.055
150 | GGGTGAACAT | 0.98659 ± 0.00029

Row | Sequence | switch fluorescence ratio
151 | GGGTGACAAT | 1 ± 0.04
152 | GGGTGAGCGA | 1.05 ± 0.064
153 | GGGTGAGGAT | 1 ± 0.046
154 | GGGTGAGGGA | 1.01 ± 0.035
155 | GGGTGAGGGG | 1.01 ± 0.033
156 | GGGTGAGTTT | 1.038 ± 0.0051
157 | GGGTGATGTA | 0.996 ± 0.026
158 | GGGTGATTAA | 0.994 ± 0.017
159 | GGGTGCAATT | 1.05 ± 0.028
160 | GGGTGCAGCG | 0.993 ± 0.03
161 | GGGTGCGGAC | 1.01 ± 0.042
162 | GGGTGCGTTC | 0.964 ± 0.027
163 | GGGTGCGTTG | 1.04 ± 0.024
164 | GGGTGGAAGC | 1.02 ± 0.018
165 | GGGTGGAGGG | 0.973 ± 0.012
166 | GGGTGGATAG | 0.971 ± 0.018
167 | GGGTGGCTCG | 0.997 ± 0.046
168 | GGGTGGCTTT | 0.9872 ± 0.0083
169 | GGGTGGGCAG | 1.009 ± 0.0027
170 | GGGTGGGGAT | 1 ± 0.02
171 | GGGTGGGTGT | 1.05 ± 0.057
172 | GGGTGGTAGA | 1.01 ± 0.04
173 | GGGTGGTATT | 1.03 ± 0.013
174 | GGGTGGTGCC | 0.997 ± 0.056
175 | GGGTGGTGGG | 0.987 ± 0.057

Row | Sequence | switch fluorescence ratio
176 | GGGTGGTGTA | 1.07 ± 0.096
177 | GGGTGGTGTG | 0.99 ± 0.068
178 | GGGTGGTTTT | 1.01 ± 0.035
179 | GGGTGTAGCG | 0.965 ± 0.026
180 | GGGTGTAGTA | 0.9978 ± 0.0079
181 | GGGTGTAGTC | 1.02 ± 0.043
182 | GGGTTAAAGA | 1 ± 0.017
183 | GGGTTAACGT | 0.987 ± 0.017
184 | GGGTTAAGGG | 0.984 ± 0.035
185 | GGGTTACGGG | 1.008 ± 0.0045
186 | GGGTTAGATG | 0.9893 ± 0.0069
187 | GGGTTAGGAA | 0.991 ± 0.022
188 | GGGTTAGGGA | 0.996 ± 0.025
189 | GGGTTAGGGT | 0.991 ± 0.049
190 | GGGTTAGTTT | 0.992 ± 0.049
191 | GGGTTATATT | 0.988 ± 0.024
192 | GGGTTATCGG | 0.967 ± 0.041
193 | GGGTTATTAT | 1.01 ± 0.019
194 | GGGTTCCGGC | 1.03 ± 0.098
195 | GGGTTCCTAT | 0.987 ± 0.013
196 | GGGTTCGTTA | 0.993 ± 0.029
197 | GGGTTCTTAA | 0.981 ± 0.048
198 | GGGTTGAACC | 0.994 ± 0.032
199 | GGGTTGAAGG | 0.9875 ± 0.0022
200 | GGGTTGAGGA | 1.01 ± 0.05
